Test [1] has as its target B*27:09/photoRL9 (human).
The target of test [2] is A*02:01/photoKV9 (human).
Test [3] concerns the target B*27:05/photoRL9 (human).
For test [4], the target named is A*03:01/photoKK9 (human).
For test [5], the target named is B*27:09/photoRL9 (human). This is another data set of the same source.
For test [6], the target named is B*27:05/photoRL9 (human). This is another data set of the same source.
In test [7] the target is A*03:01/photoKK9 (human). The source holds these as a separate data set.
Test [8] deals with A*03:01/photoKK9 (human). The source holds these as a separate data set.
For test [9], the target named is B*27:09/photoRL9 (human). The source holds these as a separate data set.
For test [10], the target named is A*03:01/photoKK9 (human). The source holds these as a separate data set.
Test [11] addresses B*27:09/photoRL9 (human). The source holds these as a separate data set.
Test [12] has as its target A*02:01/photoKV9 (human). The source holds these as a separate data set.
For test [13], the target named is B*27:05/photoRL9 (human). This is another data set of the same source.
Test [14] addresses A*03:01/photoKK9 (human). The source holds these as a separate data set.

“ERp57-Tapasin conjugate (wild-type) (from UniProt O15533 21-398; P30101 25-504) (complex)” registered a fold increase of the peptide exchange rate (observed Kon of FITC-RL9, fluorescence polarisation) of 500 nM UV-exposed B*27:09/photoRL9 with equimolar ERp57-Tsn^WT against none in [1] of 3.83 fold. Moreover, the fold increase of the peptide exchange rate (observed Kon of FITC-GV9, fluorescence polarisation) of 500 nM UV-exposed A*02:01/photoKV9 with equimolar ERp57-Tsn^WT against none in [2] worked out at 1.31 fold. Further, the fold increase of the peptide exchange rate (observed Kon of FITC-RL9, fluorescence polarisation) of 500 nM UV-exposed B*27:05/photoRL9 with equimolar ERp57-Tsn^WT against none in test [3] was determined as 5.83 fold. In addition, in [4], the fold increase of the peptide exchange rate (observed Kon of FITC-KK9, fluorescence polarisation) of 500 nM UV-exposed A*03:01/photoKK9 with equimolar ERp57-Tsn^WT against none is 10.9 fold.
For “ERp57-Tsn^K16G (from UniProt O15533 21-398; P30101 25-504) (complex)”, the relative catalytic activity in peptide exchange, (Kon mutant - Kon noTsn)/(Kon WT - Kon noTsn); UV-exposed B*27:09/photoRL9, FITC-IF9 in test [5] is 0.95 of WT. The relative catalytic activity in peptide exchange, (Kon mutant - Kon noTsn)/(Kon WT - Kon noTsn); UV-exposed B*27:05/photoRL9, FITC-RL9 in test [6] is 0.86 of WT. Also, the relative catalytic activity in peptide exchange, (Kon mutant - Kon noTsn)/(Kon WT - Kon noTsn); UV-exposed A*03:01/photoKK9, FITC-KK9 in test [7] was 0.77 of WT. Also, the relative catalytic activity in peptide exchange; UV-exposed A*03:01/photoKK9, FITC-KK9 (second printing, other number) in [8] was 0.73 of WT.
As for “ERp57-Tsn^K16L (from UniProt O15533 21-398; P30101 25-504) (complex)”, the relative catalytic activity in peptide exchange against ERp57-Tsn^WT; UV-exposed B*27:09/photoRL9, FITC-IF9 in test [9] was 1.26 of WT. Moreover, the relative catalytic activity in peptide exchange against ERp57-Tsn^WT; UV-exposed A*03:01/photoKK9, FITC-KK9 in test [10] was 0.93 of WT.
With “ERp57-Tsn^L18G (from UniProt O15533 21-398; P30101 25-504) (complex)”, the relative catalytic activity in peptide exchange, (Kon mutant - Kon noTsn)/(Kon WT - Kon noTsn); UV-exposed B*27:09/photoRL9, FITC-IF9 in [5] is 0.04 of WT. Moreover, in test [6], the relative catalytic activity in peptide exchange, (Kon mutant - Kon noTsn)/(Kon WT - Kon noTsn); UV-exposed B*27:05/photoRL9, FITC-RL9 was 0.05 of WT. The relative catalytic activity in peptide exchange, (Kon mutant - Kon noTsn)/(Kon WT - Kon noTsn); UV-exposed A*03:01/photoKK9, FITC-KK9 in [7] is 0.36 of WT.
In test [11], “TAPBPR (TAP-binding protein-related protein) (from UniProt Q9BX59 19-405) (natural protein)” showed a fold increase of the peptide exchange rate (observed Kon of FITC-RL9, fluorescence polarisation) of 500 nM UV-exposed B*27:09/photoRL9 with equimolar TAPBPR against none of 3.13 fold. The substance also yielded a fold increase of the peptide exchange rate (observed Kon of FITC-GV9, fluorescence polarisation) of 500 nM UV-exposed A*02:01/photoKV9 with equimolar TAPBPR against none in test [12] of 30.9 fold. The fold increase of the peptide exchange rate (observed Kon of FITC-RL9, fluorescence polarisation) of 500 nM UV-exposed B*27:05/photoRL9 with equimolar TAPBPR against none in test [13] came out at 1.48 fold. This substance registered a fold increase of the peptide exchange rate (observed Kon of FITC-KK9, fluorescence polarisation) of 500 nM UV-exposed A*03:01/photoKK9 with equimolar TAPBPR against none in test [14] of 34.3 fold.

Source of the values: paper PMC8271027.
